# According to patent US10772928B2, “Modulation and detection of a neuronal alternative splicing regulatory network for treatment and diagnosis of neurological disorders” (The Governing Council of the University of Toronto, priority 2014, dated 2020):
# T1: nSR100 (Mus musculus, UniProt Q8BKA3)
# T1 construct: host or cells: mouse N2A cells
# T1 sequence (Q8BKA3 1-608): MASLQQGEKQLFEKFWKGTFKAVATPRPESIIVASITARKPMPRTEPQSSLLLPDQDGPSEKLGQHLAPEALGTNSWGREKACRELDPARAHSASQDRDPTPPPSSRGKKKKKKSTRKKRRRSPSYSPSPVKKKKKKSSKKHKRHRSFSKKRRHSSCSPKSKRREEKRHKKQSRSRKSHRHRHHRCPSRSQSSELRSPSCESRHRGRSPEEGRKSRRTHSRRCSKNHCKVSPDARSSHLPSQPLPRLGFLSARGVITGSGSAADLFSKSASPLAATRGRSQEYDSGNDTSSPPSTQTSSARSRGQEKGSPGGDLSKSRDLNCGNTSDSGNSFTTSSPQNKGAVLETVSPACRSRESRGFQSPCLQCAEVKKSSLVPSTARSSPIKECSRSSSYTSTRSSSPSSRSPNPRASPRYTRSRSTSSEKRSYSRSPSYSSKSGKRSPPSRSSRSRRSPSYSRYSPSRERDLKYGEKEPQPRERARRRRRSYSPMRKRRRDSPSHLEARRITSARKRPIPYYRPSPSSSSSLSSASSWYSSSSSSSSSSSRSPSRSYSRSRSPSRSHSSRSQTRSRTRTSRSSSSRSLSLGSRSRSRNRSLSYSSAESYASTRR
# Target: T1, nSR100
# Test: AP-MS nSR100 interaction partners from mouse N2A cells (Table 5)
# Format: binding
# Settings: for AvgP (average of the SAINT scores) / MaxP (maximal SAINT score): bait Srrm4; for FoldChange between the prey Avg spectra of the bait and control purifications: bait Srrm4, 0.1 added to prevent division by 0; for AvgSpec (average number of spectra per replicate): bait Srrm4, 2 replicates; for Spectra (number of spectra for the prey in the purification of the bait): AP-MS; for SpecSum: bait Srrm4, sum of spectra over 2 replicates
# [1] = bait Srrm4, biological replicate 1 (first number of the cell)
# [2] = bait Srrm4, biological replicate 2 (second number of the cell)
# Text: By applying affinity purification coupled to mass-spectrometry (AP-MS), several interaction nSR100 partner proteins were detected that provide insight into mechanisms of post-translational regulation of nSR100 levels.
AvgP (average of the SAINT scores),MaxP (maximal SAINT score),FoldChange between the prey Avg spectra of the bait and control purifications,AvgSpec (average number of spectra per replicate),Spectra (number of spectra for the prey in the purification of the bait) [1],Spectra (number of spectra for the prey in the purification of the bait) [2],SpecSum,Molecule
1,1,145,14.5,11,18,29,"Snx8 (protein, UniProt Q8CFD4 1-459, looked up) Sorting nexin-8: MTGRAMDPLPSPAVAAAAEAEADEEADPPATGPRTSQVTEWRALDPGRMQMPQGNPLLLSYTLQELLAKDTVQVELIPEKKGLFLKHVEYEVSSQRFKSSVYRRYNDFVVFHEVLLHKFPYRMVPALPPKRVLGADREFIEGRRRALKRFINLVARHPPFSEDVLLKLFLSFSGSDVQHKLKEAAQCVGDEFMNCKLAARAKDFLPADIQTQFAMSRELIRNVYNSFYKLRDRAERIASRAIDNAADLLIFGKELSALGSDTTPLPSWAALHLSTWGSLKQALKGLSVEFALLADRAAQQGKKEENDVVEKLNLFLDLLQSYKDLCERHEKGVLHKHQRALHKYGLMKRQMMSAAHGREPESVEQLESRIVEQENVIQTMELRNYFSLYCLHQETQLVHVYLPLTSHILGAFVNSQIQGHKEMSKVWNDLKPKLSCLFAGPHSVLTPPRSPQEDGVCPH"
1,1,35,3.5,3,4,7,"Ddx47 (protein, UniProt Q9CWX9 2-455, looked up) Probable ATP-dependent RNA …: AADEEPDSPSGALQTAAEEEETKTFKDLGVTDVLCEACDQLGWAKPTKIQIEAIPLALQGRDIIGLAETGSGKTGAFALPILNALLETPQRLFALVLTPTRELAFQISEQFEALGSSIGVQCAVIVGGIDSMSQSLALAKKPHIVIATPGRLIDHLENTKGFNLRALKYLVMDEADRILNMDFETEVDKILKVIPRDRKTFLFSATMTKKVQKLQRAALKNPVKCAVSSKYQTVEKLQQYYLFIPSKFKDTYLVYILNELAGNSFMIFCSTCNNTQRTALLLRNLGFTAIPLHGQMSQSKRLGSLNKFKAKARSILLATDVASRGLDIPHVDVVVNFDIPTHSKDYIHRVGRTARAGRSGKAITFVTQYDVELFQRIEHLIGKKLPVFPTQDEEVMMLTERVNEAQRFARMELREHGEKKKRKREDAGDDDDKEGAIGVRNKVAGGKMKKRKGR"
1,1,55,5.5,6,5,11,"Snrpb2 (protein, UniProt Q9CQI7 1-225, looked up) U2 small nuclear …: MDIRPNHTIYINNMNDKIKKEELKRSLYALFSQFGHVVDIVALKTMKMRGQAFVIFKELGSSTNALRQLQGFPFYGKPMRIQYAKTDSDIISKMRGTFADKEKKKEKKKAKTMEQAAAAANKKPGQGTPNAANTQGTAAPNPQVPDYPPNYILFLNNLPEETNEMMLSMLFNQFPGFKEVRLVPGRHDIAFVEFENDGQAGAARDALQGFKITPSHAMKITYAKK"
1,1,7.33,55,45,65,110,"Luc7l3 (protein, UniProt Q5SUF2 1-432, looked up) Luc7-like protein 3: MISAAQLLDELMGRDRNLAPDEKRSNVRWDHESVCKYYLCGFCPAELFTNTRSDLGPCEKIHDENLRKQYEKSSRFMKVGYERDFLRYLQSLLAEVERRIRRGHARLALSQNQQSSGAAGPTGKNEEKIQVLTDKIDVLLQQIEELGSEGKVEEAQGMMKLVEQLKEERELLRSTTSTIESFAAQEKQMEVCEVCGAFLIVGDAQSRVDDHLMGKQHMGYAKIKATVEELKEKLRKRTEEPDRDERLKKEKQEREEREKEREREREERERKRRREEEEREKERARDRERRKRSRSRSRHSSRTSDRRCSRSRDHKRSRSRDRRRSRSRDRRRSRSHDRSERKHRSRSRDRRRSKSRDRKSYKHRSKSRDREQDRKSKEKEKKGSDDKKSSVKSSSREKQSEDTNPESKESDTKNEVNGTSEDIKSEGDTQSN"
1,1,160,16,20,12,32,"Pgam5 (protein, UniProt Q8BX10 1-288, looked up) Serine/threonine-protein …: MAFRQALQLAACGLAGGSAAVLFSAVAVGKPRGGGDADTRATEPPAWTGARAGRGVWDTNWDRREPLSLINLKKRNVESGEDELTSRLDHYKAKATRHIFLIRHSQYHVDGSLEKDRTLTPLGREQAELTGLRLASLGLKFNKIVHSSMTRAVETTDIISKHLPGVSRVSTDLLREGAPIEPDPPVSHWKPEAVQYYEDGARIEAAFRNYIHRADARQEEDSYEIFICHANVIRYIVCRALQFPPEGWLRLSLNNGSITHLVIRPNGRVALRTLGDTGFMPPDKITRS"
1,1,125,12.5,12,13,25,"Necap1 (protein, UniProt Q9CR95 1-275, looked up) Adaptin ear-binding …: MAAELEYESVLCVKPDVSVYRIPPRASNRGYRASDWKLDQPDWTGRLRITSKGKIAYIKLEDKVSGELFAQAPVEQYPGIAVETVTDSSRYFVIRIQDGTGRSAFIGIGFTDRGDAFDFNVSLQDHFKWVKQETEISKESQEMDNRPKLDLGFKEGQTIKLSIGNITAKKGGASKPRASGTGGLSLLPPPPGGKVTIPPPSSSVAISNHVTPPPIPKSNHGGNDSDILLDLDSPAPVSTSAPAPVSTSNDLWGDFSTASSSVPNQAPQPSNWVQF"
1,1,65,6.5,6,7,13,"Ddx41 (protein, UniProt Q91VN6 1-622, looked up) Probable ATP-dependent RNA …: MEDSEPERKRARADEATAGGSRSEDEDEDDEDYVPYVPLRQRRQLLLQKLLQRRRKGATEEEQQDSGSEPRGDEDDIPLGPQSNVSLLDQHQHLKEKAEARKESAKEKQLKEEEKILESVAEGRALMSVKEMAKGITYDDPIKTSWTPPRYVLSMSEERHERVRKKYHILVEGDGIPPPIKSFKEMKFPAAILRGLKKKGILHPTPIQIQGIPTILSGRDMIGIAFTGSGKTLVFTLPVIMFCLEQEKRLPFSKREGPYGLIICPSRELARQTHGILEYYCRLLQEDSSPLLRCALCIGGMSVKEQMETIRHGVHMMVATPGRLMDLLQKKMVSLDICRYLALDEADRMIDMGFEGDIRTIFSYFKGQRQTLLFSATMPKKIQNFAKSALVKPVTINVGRAGAASLDVIQEVEYVKEEAKMVYLLECLQKTPPPVLIFAEKKADVDAIHEYLLLKGVEAVAIHGGKDQEERTKAIEAFREGKKDVLVATDVASKGLDFPAIQHVINYDMPEEIENYVHRIGRTGRSGNTGIATTFINKACDESVLMDLKALLLEAKQKVPPVLQVLHCGDESMLDIGGERGCAFCGGLGHRITDCPKLEAMQTKQVSNIGRKDYLAHSSMDF"
1,1,110,11,10,12,22,"Cdc5l (protein, UniProt Q6A068 1-802, looked up) Cell division cycle 5-like …: MPRIMIKGGVWRNTEDEILKAAVMKYGKNQWSRIASLLHRKSAKQCKARWYEWLDPSIKKTEWSREEEEKLLHLAKLMPTQWRTIAPIIGRTAAQCLEHYEFLLDKTAQRDNEEETTDDPRKLKPGEIDPNPETKPARPDPIDMDEDELEMLSEARARLANTQGKKAKRKAREKQLEEARRLAALQKRRELRAAGIEIQKKRKKKRGVDYNAEIPFEKKPALGFYDTSEENYQALDADFRKLRQQDLDGELRSEKEGRDRKKDKQHLKRKKESDLPSAILQTSGVSEFTKKRSKLVLPAPQISDAELQEVVKVGQASEVARQTAEESGITNSASSTLLSEYNVTNNSIALRTPRTPASQDRILQEAQNLMALTNVDTPLKGGLNTPLHESDFSGVTPQRQVVQTPNTVLSTPFRTPSNGAEGLTPRSGTTPKPVTNATPGRTPLRDKLNINPEDGMADYSDPSYVKQMERESREHLRLGLLGLPAPKNDFEIVLPENAEKELEEREIDDTYIEDAADVDARKQAIRDAERVKEMKRMHKAVQKDLPRPSEVNETILRPLNVEPPLTDLQKSEELIKKEMITMLHYDLLHHPYEPSGNKKGKNVGFATNNSEHITYLEHSPYEKFSKEDLKKAQDALVQEMEVVKQGMSHGELSSEAYNQVWEECYSQVLYLPAQSRYTRANLASKKDRIESLEKRLEINRGHMTTEAKRAAKMEKKMKILLGGYQSRAMGLMKQLNDLWDQIEQAHLELRTFEELKKHEDSAIPRRLECLKEDVQRQQEREKELQQRYADLLMEKETLQAKF"
